Data published in US20260265403A1 (TJ BIOPHARMA SHANGHAI, published 2026).
Where a chain is given by its changes, count along the chain named. Each block holds one binder with its values, some of them ahead of it.

Assays:
[1] = biological target: T1, human CD24 on cells (human, UniProt P25063 27-59); assay: flow cytometry (GMFI), A549 cells
T1 construct: whole, on cells; One molecule for all cell lines; the cell line is named under assay or readout; also called cell surface CD24; cell-based CD24
T1 chain (looked up): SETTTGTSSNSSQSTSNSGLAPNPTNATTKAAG
Experimental: (§1) Antibodies were 4-fold serially diluted from 40 μg/mL and incubated with MCF7 cells (panel A), OVCAR3 cells (panel B), A549 cells (panel C), and NALM6 cells (panel D) cells for 30 minutes at 4° C. in FACS buffer. Then, PE conjugated-anti-human IgG (H+L) antibody was added and incubated for another 30 minutes. After washing, geometric mean fluorescence intensity (GMFI) of PE was evaluated by FACS.
(§2) Here we used four CD24 highly expressed tumor cell lines MCF7 (breast cancer), OVCAR3 (ovarian cancer), A549 (lung cancer), and NALM6 ([…]).

[2] = biological target: T1, human CD24 on cells; assay: cell-based or functional assay
[3] = biological target: T1, human CD24 on cells; assay: flow cytometry (GMFI), MCF-7 cells
Experimental: as §1, §2

[4] = biological target: T2, CD24-his protein (human, UniProt P25063 27-59, posttranslational modification (purified from mammalian cell)); assay: ELISA, CD24-his (HEK 293), unit taken from the concentration axis
T2 construct: Purified from mammalian (HEK293) cells; also called soluble recombinant CD24 protein; human HEK293 purified CD24-his protein; not shown: His tag
T2 chain (looked up): T1 chain (looked up)
Text: (§3) Since human CD24 contains only 33 core amino acids, and is heavily glycosylated, two different proteins were used to perform protein binding assay. CD24-his protein was purified from mammalian cell and as modified by posttranslational modification. While CD24-GST was purified from E. coli with no PTM.

[5] = biological target: T1, human CD24 on cells; assay: flow cytometry (GMFI), OVCAR3 cells
Experimental: as §1, §2

[6] = biological target: T2, CD24-his protein; assay: standard ELISA on CD24-his
Text: as §3

[7] = biological target: T1, human CD24 on cells; assay: flow cytometry on MCF7, OVCAR3, A549 and NALM6 cells
Experimental: as §1, §2

[8] = biological target: T1, human CD24 on cells; assay: flow cytometry (GMFI), NALM6 cells
Experimental: as §1, §2

[9] = biological target: T1, human CD24 on cells; assay: flow cytometry (GMFI), MCF-7 cells [Cont'd) C]
[10] = biological target: T1, human CD24 on cells; assay: flow cytometry (GMFI), MCF-7 cells
[11] = biological target: T1, human CD24 on cells; assay: Siglec10-PE competition assay (GMFI); competitor Siglec-10; CD24 source not named on the sheet [Cont'd) D]
[12] = biological target: T2, CD24-his protein; assay: ELISA, CD24-his(HEK 293) [Cont'd) B]
[13] = biological target: T1, human CD24 on cells; assay: flow cytometry (GMFI), MC38-hCD24 cells [Cont'd) C]
[14] = biological target: T1, human CD24 on cells; assay: flow cytometry (GMFI), NALM6 cells
[15] = biological target: T3, CD24-his-GST(Ecoli); assay: ELISA, CD24-his-GST(Ecoli) [Cont'd) B]
T3 construct: also called CD24-GST
T3 chain: T1 chain (looked up)

[16] = biological target: T4, Human CD24 (human, UniProt P25063 27-59, limits assumed); assay: Biacore (SPR); antibody as ligand, human CD24 as analyte
T4 chain (looked up): T1 chain (looked up)

[17] = biological target: T2, CD24-his protein; assay: Siglec10-PE competition assay (gMFI on the sheet); legend: Siglec-10-his-Biotin mixed with the antibody, plate coated with CD24 protein
Experimental: Samples were washed three times with washing buffer. And then signal was tested.
CD24-his protein was firstly coated in 96-well plate overnight.

[18] = biological target: T1, human CD24 on cells; assay: flow cytometry (MFI), NALM6 cells [Cont'd) B]
[19] = biological target: T1, human CD24 on cells; assay: cell-based or functional assay
[20] = biological target: T1, human CD24 on cells; assay: flow cytometry (MFI), MCF-7 cells [Cont'd) B]

EC50 (read off the curve) [1]: ~0.2 µg/mL | EC50 of macrophage mediated phagocytosis against multiple tumor cells [2]: 1.97 to 2.45 nM | EC50 (read off the curve) [3]: ~0.2 µg/mL | EC50 [4]: 0.0101 µg/mL | EC50 (read off the curve) [5]: ~0.3 µg/mL | EC50 [6]: 10.1 µg/mL | EC50 [7]: 1.2 to 2.11 nM | EC50 (read off the curve) [8]: ~0.3 µg/mL
B1: 4451HM15-IgG1-3A (antibody, V domains shown)
VH: QVQLVQSGAEVKKPGASVKVSCKASGYDFTGYHMGWVRQAPGQGLEWMGEINPITSDKYFNQKFKSRVTMTRDTSISTAYMELSRLRSDDTAVYYCARRDYGTSLDYWGQGTTVTVSS
VL: DIQLTQSPSFLSASVGDRVTITCRASASISKYLAWYQQKPGKAPKLLIYAGSTLHSGIPSRFRGSGSGTEFTLTISSLQPEDFATYYCQQHNEYPITFGQGTKLEIKR
notes: Produced in a CHO-based system

EC50 (read off the curve) [9]: ~0.2 µg/mL | EC50 (read off the curve) [10]: ~0.2 µg/mL | IC50 (read off the curve) [11]: ~1 µg/mL | EC50 (read off the curve) [12]: ~0.02 µg/mL | EC50 (read off the curve) [13]: ~0.2 µg/mL | EC50 (read off the curve) [14]: ~0.3 µg/mL | EC50 (read off the curve) [15]: ~0.06 µg/mL | Kd [16]: 15.5 nM | koff [16]: 0.0175 s⁻¹ | kon [16]: 1.13e+06 M⁻¹ s⁻¹
B2: 4451H-IgG4 (antibody, V domains shown)
VH: B1 VH with G35N, Y59T
VL: DIQLTQSPSFLSASVGDRVTITCRASKSISKYLAWYQQKPGKAPKLLIYAGSTLHSGIPSRFRGSGSGTEFTLTISSLQPEDFATYYCQQHNEYPITFGQGTKLEIK
notes: also called VH1+VL3 fused with human IgG4 Fc

IC50 (read off the curve) [17]: ~1 µg/mL
B3: 4451HM15-IgG4 (antibody, V domains shown)
VH: B1 VH
VL: B2 VL with K27A
notes: IgG4; also called IgG4 isoform of 4451HM15

EC50 (read off the curve) [18]: ~0.4 µg/mL | EC50 of Phagocytosis assay, IgG4, Kappa; HEK293-CD24 [19]: 0.42 µg/mL | EC50 of Phagocytosis assay, IgG4, Kappa; MCF-7 [19]: 0.43 µg/mL | EC50 of Phagocytosis assay, IgG4, Kappa; NALM6 [19]: 0.47 µg/mL | EC50 of Phagocytosis assay, IgG4, Kappa; OVCAR3 [19]: 0.38 µg/mL | EC50 (read off the curve) [20]: ~0.4 µg/mL
B4: 85-D5A10 (4434), IgG4, Kappa (antibody, V domains shown)
VH: EVQLQQSGPELVKPGASVKISCKASGYEFTGYHMNWVKQSPEKSLEWIGEINPITSDKTFNQKFKAKATLTVDRSSSTAYMHLKSLTSDDSAVYYCARRDYGTSLDYWGQGTTLTVSS
VL: DVQITQSPSYLAASPGETITIYCRASKSISKYLAWYQEKPEKTIRLLIYAGSTLQSGIPSRFRGSGSGKDFTLTVSGLEPEDFAMYYCQQHNEYPITFGAGTKLELI

EC50 (read off the curve) [18]: ~0.4 µg/mL | EC50 of Phagocytosis assay, IgG4, Kappa; HEK293-CD24 [19]: 0.44 µg/mL | EC50 of Phagocytosis assay, IgG4, Kappa; MCF-7 [19]: 0.74 µg/mL | EC50 of Phagocytosis assay, IgG4, Kappa; NALM6 [19]: 0.32 µg/mL | EC50 of Phagocytosis assay, IgG4, Kappa; OVCAR3 [19]: 0.16 µg/mL
B5: 74-H4C6 (4451), IgG4, Kappa (antibody, V domains shown)
VH: B4 VH with E28D, A66S, H82Y, D89E
VL: B4 VL with I44N, Q55H, I107K

EC50 (read off the curve) [18]: ~0.5 µg/mL | EC50 of Phagocytosis assay, IgG4, Kappa; HEK293-CD24 [19]: 0.43 µg/mL | EC50 of Phagocytosis assay, IgG4, Kappa; MCF-7 [19]: 0.96 µg/mL | EC50 of Phagocytosis assay, IgG4, Kappa; NALM6 [19]: 0.57 µg/mL | EC50 of Phagocytosis assay, IgG4, Kappa; OVCAR3 [19]: 0.16 µg/mL
B6: 89-E8C12 (4428), IgG4, Kappa (antibody, V domains shown)
VH: B4 VH with E28D, H33Y, V37M, D57H, K58N, D89E
VL: B4 VL with K69T, I96L, I107K
